Results reported in PMC11189471.

Experiments:
[1] = target: full-length HpARI2 (Alarmin Release Inhibitor, Heligmosomoides polygyrus bakeri) (Heligmosomoides polygyrus bakeri); experiment: SPR; 400-450 RU biotinylated HpARI2 captured on the chip; two-fold series (1000 nM to 15.62 nM) of hIL-33 or hIL-33:S158R flowed
[2] = target: HpARI2-LD (full-length HpARI2 with residues 180-188 of the CCP3 loop deleted) (Heligmosomoides polygyrus bakeri); experiment: SPR; screening of HpARI2 variants for mIL-33 binding at one concentration (legend: HpARI2 concentration of 100 nM); same reagents and equipment as the kinetic SPR; n = 3
[3] = target: HpARI2-LD (full-length HpARI2 with residues 180-188 of the CCP3 loop deleted) (Heligmosomoides polygyrus bakeri); experiment: SPR; biotinylated HpARI2 variant (300-400 RU) captured with the Biotin CAPture kit; two-fold series of IL-33 flowed at 40 µl/min; 25 °C; 20 mM Tris-Cl pH 8.0, 150 mM NaCl, 1 mM EDTA, 0.02% Tween-20, 1 mg/ml salmon sperm DNA; Langmuir fit
[4] = target: HpARI2_CCP1/2 (HpARI2 lacking CCP3) (Heligmosomoides polygyrus bakeri); experiment: as above
[5] = target: HpARI2_CCP2/3 (HpARI2 lacking CCP1) (Heligmosomoides polygyrus bakeri); experiment: as above
[6] = target: full-length HpARI2 (Alarmin Release Inhibitor, Heligmosomoides polygyrus bakeri) (Heligmosomoides polygyrus bakeri); experiment: as above
[7] = target: mouse IL-33 (residues 112-270) (mouse)
[8] = target: mouse IL-33 (residues 112-270) (mouse); experiment: SPR; 1000-1200 RU ST2-Fc captured on a protein A/G-coated CM5 chip; mIL-33 (2 µM) alone or mixed with 2.5 µM HpARI2, HpARI2_CCP2/3 or HpARI2-LD flowed; 20 mM Tris-Cl pH 8.0, 150 mM NaCl, 1 mg/ml salmon sperm DNA, 0.02% Tween-20
[9] = target: HpARI2_CCP2/3 (Heligmosomoides polygyrus bakeri); experiment: SPR; biotinylated HpARI2 variant (300-400 RU) captured on a Biotin CAPture chip, two-fold series of mIL-33 (or mIL-33 R159A) injected; Biacore T200, 25 °C, 20 mM Tris-Cl pH 8.0, 150 mM NaCl, 1 mM EDTA, 0.02% Tween-20, 1 mg/ml salmon sperm DNA; Langmuir 1:1 fit

“human IL-33 S158R mutant (from UniProt O95760) (ligand)” showed a fold increase of HpARI2 binding against human IL-33 [1] greater than 100 fold.
Substance mouse IL-33 (residues 112-270) (ligand) has a percent reduction of mIL-33 binding against HpARI2 [2] of 60%, a Kd [3] of 45 nM and a Kd [4] of 49 nM. For the same substance, the fold koff against full-length HpARI2 [4] was greater than 100 fold, the Kd [5] was 4 nM and the Kd [6] was 0.048 nM.
Work on “human IL-33 (from UniProt O95760 1-270) (ligand)” yielded a Kd [1] of 65 nM.
“HpARI2-LD (full-length HpARI2 with residues 180-188 of the CCP3 loop deleted) (natural protein)” showed a protein concentration needed for the same inhibition of IL-5 and IL-13 release as wild-type HpARI2 (bone marrow-derived ILC2s) [7] of 100 fold and a percent reduction of mIL-33 binding to ST2-Fc at 2.5 µM HpARI2-LD [8] of 25%.
In the case of mouse IL-33 R159A mutant (ligand), the fold reduction in binding affinity against wild-type mIL-33 [5] is reported as 1000 fold.
With mouse IL-33 R159A (ligand) the Kd [9] was 3800 nM.
